In patent publication US20250171806A1 (BROAD INSTITUTE, published 2025):

Key:
Assay in all cases: co-immunoprecipitation from HEK293 lysate: Flag IP of NS3, HA Western blot
[1] = target: T1, HA-tagged Galleria mellonella (Gm) densovirus capsid protein VP1 (Galleria mellonella (Gm) densovirus, UniProt Q90125 1-811)
T1 construct: also called Gm VP1; GmDNV capsid VP protein 1
T1 sequence: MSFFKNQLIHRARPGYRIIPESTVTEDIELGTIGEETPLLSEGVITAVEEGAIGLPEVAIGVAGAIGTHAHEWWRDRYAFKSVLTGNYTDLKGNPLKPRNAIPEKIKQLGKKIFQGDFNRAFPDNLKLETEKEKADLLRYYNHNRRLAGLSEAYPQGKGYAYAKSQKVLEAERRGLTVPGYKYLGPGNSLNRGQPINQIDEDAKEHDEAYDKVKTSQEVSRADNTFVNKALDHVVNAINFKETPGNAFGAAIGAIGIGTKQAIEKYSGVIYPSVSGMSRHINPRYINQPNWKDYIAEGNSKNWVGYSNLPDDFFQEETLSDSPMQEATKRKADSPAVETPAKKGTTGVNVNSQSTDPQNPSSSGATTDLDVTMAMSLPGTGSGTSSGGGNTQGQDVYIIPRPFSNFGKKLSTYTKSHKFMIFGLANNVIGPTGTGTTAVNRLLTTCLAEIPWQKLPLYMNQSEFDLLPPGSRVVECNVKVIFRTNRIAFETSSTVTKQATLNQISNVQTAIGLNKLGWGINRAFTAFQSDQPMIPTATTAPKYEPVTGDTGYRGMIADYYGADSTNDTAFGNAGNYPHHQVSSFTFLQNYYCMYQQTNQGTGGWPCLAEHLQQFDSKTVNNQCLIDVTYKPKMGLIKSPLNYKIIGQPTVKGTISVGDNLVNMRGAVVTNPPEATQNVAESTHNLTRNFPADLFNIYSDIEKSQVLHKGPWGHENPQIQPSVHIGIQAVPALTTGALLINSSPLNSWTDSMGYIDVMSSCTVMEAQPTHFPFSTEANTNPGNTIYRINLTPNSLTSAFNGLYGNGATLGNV

[2] = target: T2, HA-tagged Galleria mellonella (Gm) densovirus capsid protein VP2 (Galleria mellonella (Gm) densovirus, UniProt Q90125 277-811)
T2 construct: also called Gm VP2; GmDNV capsid VP protein 2
T2 sequence: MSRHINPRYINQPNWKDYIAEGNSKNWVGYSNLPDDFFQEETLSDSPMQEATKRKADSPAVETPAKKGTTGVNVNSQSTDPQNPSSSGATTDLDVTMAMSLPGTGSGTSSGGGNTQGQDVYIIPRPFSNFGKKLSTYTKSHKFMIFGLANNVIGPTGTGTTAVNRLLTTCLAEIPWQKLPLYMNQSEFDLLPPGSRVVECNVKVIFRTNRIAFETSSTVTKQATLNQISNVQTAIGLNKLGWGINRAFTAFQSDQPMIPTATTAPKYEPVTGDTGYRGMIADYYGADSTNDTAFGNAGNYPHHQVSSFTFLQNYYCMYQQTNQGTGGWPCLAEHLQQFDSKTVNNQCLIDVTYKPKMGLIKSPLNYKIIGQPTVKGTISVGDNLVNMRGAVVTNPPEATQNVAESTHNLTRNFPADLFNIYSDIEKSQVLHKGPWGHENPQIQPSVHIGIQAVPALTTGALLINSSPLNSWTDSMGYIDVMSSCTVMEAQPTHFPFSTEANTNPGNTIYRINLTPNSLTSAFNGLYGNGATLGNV

[3] = target: T3, HA-tagged Galleria mellonella (Gm) densovirus capsid protein VP3 (Galleria mellonella (Gm) densovirus, UniProt Q90125 324-811)
T3 construct: also called Gm VP3; GmDNV capsid VP protein 3
T3 sequence: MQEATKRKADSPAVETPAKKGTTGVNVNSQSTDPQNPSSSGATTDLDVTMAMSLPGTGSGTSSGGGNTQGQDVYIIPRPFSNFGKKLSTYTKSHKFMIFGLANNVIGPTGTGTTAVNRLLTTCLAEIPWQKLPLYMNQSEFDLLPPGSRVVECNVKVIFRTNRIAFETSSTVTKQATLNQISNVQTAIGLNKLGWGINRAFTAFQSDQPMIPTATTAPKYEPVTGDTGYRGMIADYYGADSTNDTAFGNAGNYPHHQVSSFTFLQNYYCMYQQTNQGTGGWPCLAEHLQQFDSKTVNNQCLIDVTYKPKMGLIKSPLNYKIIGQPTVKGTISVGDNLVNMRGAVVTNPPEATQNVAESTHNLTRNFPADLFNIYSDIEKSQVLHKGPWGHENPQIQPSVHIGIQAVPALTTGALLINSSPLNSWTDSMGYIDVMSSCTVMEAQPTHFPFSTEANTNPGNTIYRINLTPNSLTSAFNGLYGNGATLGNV

[4] = target: T4, HA-tagged Galleria mellonella (Gm) densovirus capsid protein VP4 (Galleria mellonella (Gm) densovirus, UniProt Q90125 375-811)
T4 construct: also called Gm VP4; GmDNV capsid VP protein 4
T4 sequence: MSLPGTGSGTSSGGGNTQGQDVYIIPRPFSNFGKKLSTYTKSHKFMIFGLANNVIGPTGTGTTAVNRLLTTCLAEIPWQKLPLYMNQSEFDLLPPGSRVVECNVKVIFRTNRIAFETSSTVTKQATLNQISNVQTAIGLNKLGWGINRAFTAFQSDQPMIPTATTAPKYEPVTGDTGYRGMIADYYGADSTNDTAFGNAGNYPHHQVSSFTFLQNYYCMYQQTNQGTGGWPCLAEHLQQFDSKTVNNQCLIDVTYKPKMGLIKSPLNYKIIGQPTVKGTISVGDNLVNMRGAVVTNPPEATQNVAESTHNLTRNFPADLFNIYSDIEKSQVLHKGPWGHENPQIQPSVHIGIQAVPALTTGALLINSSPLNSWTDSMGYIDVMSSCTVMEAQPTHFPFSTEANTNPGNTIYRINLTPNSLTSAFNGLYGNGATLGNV

Measured: binding result

B1: Flag-tagged Galleria mellonella (Gm) densovirus nonstructural protein NS3 (other)
chain: MSIAKFLYVRRLFEKVYNPKSLFYEAYKCARLNGLDMSILPKPILNMSHDMDTQIIACGEDINHTLAIEELEHWDWSKQNRLPFQLYLAVMNLTEIPEWLDETMLIECVYYFKELINHRDPYDTDELNTWNANGKPFKTMWKICKFCYNNCEDPDDYRFIYNRTVFVEDVEEIITRLQDSDSWCQLCHTCPLFNISAIYDNSPNNKQRRYSSSDDDDYMSNSFFVKHPNSRH
notes: also called Gm NS3; GmNS3; not shown: Flag tag, at either the N or the C terminus
binds: all assays above

B2: Gm NS3 with C-terminal Flag tag (other)
chain: B1 chain
notes: also called NS3 when the Flag tag was present on the C-terminus; not shown: C-terminal Flag tag
binds: all assays above
